# The supplement of paper PMC10567573
# B1: POMT2 (parent)
# chain: VKYNSCADRPFSAPWWFWLSLTGV
# B2: WDR88 (parent)
# chain: LLTITKAHSNAISNCCFTFSGHFL
# Variants of: B1
# Assay: protein stability index of a GFP-peptide fusion (GPS, HEK-293T) (PSI 1-6); higher = more stable
# Conditions: c terminus: a fixed tail appended
# 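Further: lentivirally expressed fusions sorted by FACS into six bins by GFP to DsRed ratio, PSI derived from sequencing read proportions per bin multiplied by bin number.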
row,Variant,protein stability index
1,A7Y,1.39
2,V1A,3.3
3,V1H,1.1
4,V24R,1.87
5,W16I,3.2
6,V1C,2.99
7,W18C,2.54
8,D8T,3.21
9,G23A,1.77
10,D8G,2.4
11,S20F,1.04
12,S5P,2.39
13,P10L,2.5
14,P14F,1.35
15,S20Y,2.25
16,R9F,3.16
17,D8Y,2.29
18,W15H,2.54
19,K2Y,3.34
20,V24L,5.16
21,F11S,1
22,L21K,1.12
23,R9W,3.34
24,P10A,2.24
25,Y3Q,1.41
26,D8P,3.01
27,C6N,1.02
28,S20H,2.9
29,K2R,2.2
30,G23S,1.47

# Variants of: B2
# Assay: as above
# Conditions: c terminus: a fixed tail appended
row,Variant,protein stability index
1,L1A,3.61
2,L1C,2.81
3,L1D,1.67
4,L1E,1.76
5,L1F,2.52
6,L1G,1.49
7,L1H,2.46
8,L1I,4.01
9,L1K,1.85
10,L1M,1.95
11,L1N,2.47
12,L1P,2.81
13,L1Q,1.59
14,L1R,2.75
15,L1S,1.76
16,L1T,3.09
17,L1V,2.93
18,L1W,3.03
19,L1Y,4.04
20,L2A,3.15
21,L2C,2.18
22,L2D,1.4
23,L2E,1.57

row,Variant,protein stability index
1,L2F,2.44
2,L2G,2.01
3,L2H,2.28
4,L2I,3.28
5,L2K,2.85
6,L2M,2.53
7,L2N,2.82
8,L2P,2.12
9,L2Q,2.75
10,L2R,2.41
11,L2S,2.4
12,L2T,2.71
13,L2V,2.33
14,L2W,3.22
15,L2Y,2.1
16,T3A,2.93
17,T3C,2.84
18,T3D,2.61
19,T3E,2.47
20,T3F,3.14
21,T3G,1.94
22,T3H,2.57
23,T3I,2.74

row,Variant,protein stability index
1,T3L,2.37
2,T3M,3.13
3,T3N,3
4,T3P,2.97
5,T3Q,3.3
6,T3S,3.22
7,T3V,3.68
8,T3W,2.29
9,T3Y,2.92
10,I4A,2.47
11,I4C,2.19
12,I4D,3.07
13,I4E,1.99
14,I4F,3.68
15,I4G,1.9
16,I4H,2.36
17,I4K,2.5
18,I4L,2.9
19,I4M,3.12
20,I4N,2.89
21,I4P,2.15
22,I4Q,1.8
23,I4R,2.4

row,Variant,protein stability index
1,I4S,2.5
2,I4T,2.8
3,I4V,3.9
4,I4Y,2.38
5,T5A,3.41
6,T5C,2.54
7,T5D,1.65
8,T5E,2.58
9,T5F,4.83
10,T5G,2.73
11,T5H,2.9
12,T5I,2.02
13,T5K,2.37
14,T5L,2.03
15,T5M,3.85
16,T5N,1.67
17,T5P,2.98
18,T5Q,1.69
19,T5R,2.72
20,T5S,3.33
21,T5V,3.03
22,T5Y,3.34
23,K6A,2.8

row,Variant,protein stability index
1,K6C,2.9
2,K6D,1.83
3,K6E,2.67
4,K6F,3.35
5,K6G,2.44
6,K6H,3.03
7,K6I,2.88
8,K6L,3.35
9,K6M,2.66
10,K6N,3.18
11,K6P,3.02
12,K6Q,2.29
13,K6R,2.72
14,K6S,2.44
15,K6T,2.78
16,K6V,2.84
17,K6W,3.12
18,K6Y,1.83
19,A7C,2.75
20,A7D,1.86
21,A7E,3.31
22,A7F,2.86
23,A7G,3.76

row,Variant,protein stability index
1,A7H,3.42
2,A7I,2.95
3,A7K,2.4
4,A7L,3.04
5,A7M,2.8
6,A7N,2.1
7,A7P,2.04
8,A7Q,3.22
9,A7R,3.62
10,A7S,2.54
11,A7T,2.58
12,A7V,2.76
13,A7W,4.07
14,A7Y,3.09
15,H8A,3.08
16,H8C,2.53
17,H8D,3.88
18,H8E,2.27
19,H8F,2.59
20,H8G,3.56
21,H8I,2.57
22,H8K,3.13
